Values of other authors in PMC13200438 (Journal of Nanobiotechnology, 2026).

Conditions: oral semaglutide (Rybelsus)

For semaglutide, the “oral (absolute) bioavailability” value is listed as < 2%.
